Results on one substance are retold here after patent US20220306683A1, “PROXIMITY-BASED LABELING SYSTEMS AND APPLICATIONS THEREOF” (The Trustees of Princeton University, priority 2019, published 2022).

In the test the target is E3 ligase MDM2 (Homo sapiens, UniProt Q00987). The experiment in a line: Peptide-photocatalyst conjugate labeling of MDM2 versus BSA. As to conditions: peptide conjugated to photocatalyst through azido-lysine.

Ends that are not written are not given here.

E3 ligase MDM2, sequence (Q00987 whole entry): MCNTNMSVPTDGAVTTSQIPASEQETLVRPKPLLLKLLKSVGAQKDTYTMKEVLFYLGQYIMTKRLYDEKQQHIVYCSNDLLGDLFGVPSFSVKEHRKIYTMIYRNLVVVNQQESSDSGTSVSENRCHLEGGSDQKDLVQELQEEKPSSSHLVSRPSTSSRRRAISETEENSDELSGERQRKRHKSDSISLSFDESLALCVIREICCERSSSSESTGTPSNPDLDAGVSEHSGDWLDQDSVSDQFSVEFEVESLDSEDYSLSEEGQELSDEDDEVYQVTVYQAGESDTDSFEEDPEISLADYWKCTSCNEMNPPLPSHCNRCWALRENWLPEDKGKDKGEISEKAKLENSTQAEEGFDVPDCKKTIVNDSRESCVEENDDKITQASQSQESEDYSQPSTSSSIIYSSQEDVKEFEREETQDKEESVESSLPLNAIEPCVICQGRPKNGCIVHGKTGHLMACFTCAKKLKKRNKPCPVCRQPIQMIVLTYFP

With “ATSP7041: α-helical stapled cyclic peptide targeting MDM2, conjugated to the photocatalyst through a modified azido-lysine (KLTFAEYWAQAASAA; staple (positions not given here); also: stapled, places not given here, photocatalyst conjugated via azido-lysine, place not given here)”, the “enrichment of target protein MDM2 compared to free photocatalyst control” value is 3 fold.
